For assay [1], the target named is T1, human full-length TrkB receptor (human, UniProt Q16620 32-822). The experiment in a line: cell-based or functional assay.
Assay [2] has as its target T1, human full-length TrkB receptor. Kind of assay: cell-based or functional assay. This is another data set of the same source.
Assay [3] shares this target. The experiment in a line: cell-based or functional assay. The source holds these as a separate data set.
A further assay addresses T2, rat TrkB receptor (rat, UniProt Q63604 32-821).
T2 construct: whole, on cells; also called rodent TrkB
Kind of assay: method not detailed.

The next assay deals with T3, mouse TrkB receptor (mouse, UniProt P15209 32-821).
T3 construct: whole, on cells; also called murine TrkB; rodent TrkB
The experiment in a line: method not detailed.

The text below walks through data of patent publication US20200165345A1 (GlaxoSmithKline, published 2020).

T1 sequence (Q16620 32-822 limits assumed): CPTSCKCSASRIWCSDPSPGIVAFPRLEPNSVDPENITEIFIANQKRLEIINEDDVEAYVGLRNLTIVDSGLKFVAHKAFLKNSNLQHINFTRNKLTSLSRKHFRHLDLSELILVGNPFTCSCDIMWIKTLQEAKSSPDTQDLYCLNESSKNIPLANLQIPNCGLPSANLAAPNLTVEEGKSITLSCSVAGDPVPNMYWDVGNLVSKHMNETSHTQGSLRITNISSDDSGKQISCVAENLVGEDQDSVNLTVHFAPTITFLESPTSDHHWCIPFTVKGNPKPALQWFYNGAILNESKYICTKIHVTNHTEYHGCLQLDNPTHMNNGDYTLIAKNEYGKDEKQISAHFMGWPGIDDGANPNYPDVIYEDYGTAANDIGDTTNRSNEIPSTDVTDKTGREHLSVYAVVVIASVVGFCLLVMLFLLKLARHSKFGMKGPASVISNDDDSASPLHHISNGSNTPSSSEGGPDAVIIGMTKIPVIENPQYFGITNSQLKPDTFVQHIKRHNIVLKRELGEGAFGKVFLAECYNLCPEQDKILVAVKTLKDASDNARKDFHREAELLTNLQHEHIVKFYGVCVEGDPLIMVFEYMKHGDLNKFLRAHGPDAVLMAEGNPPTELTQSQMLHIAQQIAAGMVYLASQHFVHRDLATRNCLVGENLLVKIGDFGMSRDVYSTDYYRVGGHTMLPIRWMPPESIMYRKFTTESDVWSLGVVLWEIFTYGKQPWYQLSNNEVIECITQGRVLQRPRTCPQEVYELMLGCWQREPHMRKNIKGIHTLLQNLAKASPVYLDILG
T3 sequence (P15209 32-821): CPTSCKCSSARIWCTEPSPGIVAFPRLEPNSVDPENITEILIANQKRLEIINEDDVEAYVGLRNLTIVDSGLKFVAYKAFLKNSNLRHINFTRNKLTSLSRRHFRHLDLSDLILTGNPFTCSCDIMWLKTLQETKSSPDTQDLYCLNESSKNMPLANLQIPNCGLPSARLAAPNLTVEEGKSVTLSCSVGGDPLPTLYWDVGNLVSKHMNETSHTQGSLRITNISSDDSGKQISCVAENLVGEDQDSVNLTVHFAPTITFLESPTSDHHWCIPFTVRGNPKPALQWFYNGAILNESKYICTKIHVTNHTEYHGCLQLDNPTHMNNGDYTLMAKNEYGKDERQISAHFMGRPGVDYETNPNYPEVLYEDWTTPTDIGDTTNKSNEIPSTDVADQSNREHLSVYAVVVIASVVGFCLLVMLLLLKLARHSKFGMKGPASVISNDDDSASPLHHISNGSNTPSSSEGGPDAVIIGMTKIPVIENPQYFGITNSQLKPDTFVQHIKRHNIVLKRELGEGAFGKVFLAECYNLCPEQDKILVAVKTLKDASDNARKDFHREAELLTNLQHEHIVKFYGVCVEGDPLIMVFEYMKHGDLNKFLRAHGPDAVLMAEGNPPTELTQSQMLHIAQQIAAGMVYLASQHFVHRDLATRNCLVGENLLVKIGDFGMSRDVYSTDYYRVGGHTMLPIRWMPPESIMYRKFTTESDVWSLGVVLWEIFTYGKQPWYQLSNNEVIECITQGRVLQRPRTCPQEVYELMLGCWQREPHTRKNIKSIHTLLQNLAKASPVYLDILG
T2 sequence (Q63604 32-821): as the sequence (P15209 32-821) above, with T3M, S9T, A10T, V32I, R63K, S84G, M153T, L185I, S394T, S770N counted along it

B1: 1G11 (antibody, V domains shown)
VH: QVQLQQSGDDLVKPGASVKLSCKASGYTFTSYYINWIKQRPGQGLECIGRIAPGNTYYNEIFKGKAILTVDTSSSTAYIQLSSLSSEDSGVYFCARRGYEGALDYWGQGTSVTVSS
VL: DIVLTQSPATLSVTPGDSVSLSCRASQRISNNLHWYQQKSHESPRLLIKYVSQSISGIPSRFSGSGSGTDFTLSINSVETEDFGMYFCQQSNSWPLTFGAGTKLELKR
Regarding B1, in assay [1], the “EC50 (read off the curve); pTrkB relative activity in the presence of 10 nM BDNF” value was approximately 10 nM. Besides, in assay [2], the “Activation of TrkB (pTrkB, Y515), EC50” value came to 3.1 nM and the “Potentiation of BDNF-induced agonism of TrkB (pTrkB, % of BDNF alone)” value (“Potentiation … (pTrkB, % of BDNF alone)” for short) is approximately 130%.

B2: 8E5 (antibody, mouse IgG1, kappa, V domains shown)
VH: EVQLVESGGDLVKPGGSLKLSCAASGFTFSTYGMSWVRQTPDKGLEWVATVSTGGTYTYYPDSVKGRFTISRDNAKNTLYLQMSSLKSEDTAMYYCARGGYSFAYWGQGTLVTVSA
VL: ENVLTQSPAIMSASPGEKVTMTCRASSSVSSSYLHWYQQKSGVSPKLWIYSTSNLASGVPARFSGSGSGTSYSLTISSVEAEDAATYYCQQYSGYPLTFGAGTKLELKR
For B2, in assay [3], the “cell survival, PC12 cells expressing human TrkB, EC50” value was 0.09 nM and the “neurite outgrowth, PC12 cells expressing human TrkB, EC50” value was determined as 1.58 nM. Moreover, the “Potentiation … (pTrkB, % of BDNF alone)” value in assay [2] was approximately 120%.

B3: Humanised 1G11 (antibody, human IgG1, kappa, V domains shown)
VH: QVQLVQSGAEVKKPGSSVKVSCKASGYTFTSYYINWVRQAPGQGLESMGRIAPGNTYYNEIFKGRVTITADKSTSTAYMELSSLRSEDTAVYYCARRGYEGALDYWGQGTLVTVSS
VL: EIVLTQSPATLSLSPGERATLSCRASQRISNNLHWYQQKPGQAPRLLIKYVSQSISGIPARFSGSGSGTDFTLTISSLEPEDFAVYYCQQSNSWPLTFGQGTKLEIKR
notes: Straight graft of 1G11 CDRs with serine at Kabat position 47 of the heavy chain (H7, Lo1); human IgG1 Fc with L235A and G237A (EU numbering), Fc-disabled; also called humanised 1G11 (H7, Lo1); copies: 2 + 2
Take B3: the binding result in the assay with rat TrkB receptor and with mouse TrkB receptor was “binds” in each case. Moreover, the “levels of phosphorylated TrkB in CHO-K1 cells, EC50” value in assay [3] was determined as 0.65 nM.

B4: 3A3 (antibody, mouse IgG1, kappa, V domains shown)
VH: QVQLQQSGAELAKPGASVKMSCKASGYTFSSYWMHWVKQRPGQGLEWIGYINPSTGYTDYNQKFKDKATLTADKSSNTAYMQLSSLTSDDSAVYYCARSRAARYWGQGTTLTVSS
VL: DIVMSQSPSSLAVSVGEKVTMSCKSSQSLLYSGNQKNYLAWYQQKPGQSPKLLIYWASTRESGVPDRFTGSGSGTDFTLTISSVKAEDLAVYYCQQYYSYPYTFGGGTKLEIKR
Regarding B4, the “EC50 (read off the curve); pTrkB relative activity in the presence of 10 nM BDNF” value in assay [1] is approximately 0.7 nM. Besides, the “cell survival, PC12 cells expressing human TrkB, EC50” value in assay [3] is 0.006 nM. The “Potentiation … (pTrkB, % of BDNF alone)” value in assay [2] was approximately 160%.
